# Results as given in publication PMC3312813 (Nature chemical biology, 2011).
# Tested on: live HeLa cells
# Settings: 8 µM Flu-HBS 3, HeLa cells, 2.5 hours, fixed, Z-section fluorescence microscopy
smiles,measurement,value
CC[C@H](C)[C@H](NC(=O)CN1C/C=C/CCC(=O)N[C@@H](Cc2ccccc2)C(=O)N[C@@H](CCC(=O)O)C1=O)C(=O)N[C@@H](Cc1ccc(O)cc1)C(=O)N[C@@H](CCCNC(=N)N)C(=O)N[C@@H](CC(C)C)C(=O)N[C@@H](CCC(=O)O)C(=O)N[C@@H](CC(C)C)C(=O)N[C@@H](CC(C)C)C(=O)N[C@@H](CCCCN)C(=O)N[C@@H](C)C(=O)N[C@@H](CCC(=O)O)C(=O)N[C@@H](CCC(=O)O)C(=O)N[C@@H](C)C(=O)N[C@@H](CC(N)=O)C(=O)N[C@@H](CCCCNC(=O)c1ccc2c(c1)C(=O)OC21c2ccc(O)cc2Oc2cc(O)ccc21)C(N)=O [Flu-HBS 3],Cellular uptake at 4 °C as compared to 37 °C,significantly reduced
